Laboratory results published in article PMC9585320 (Frontiers in Molecular Biosciences, 2022).

Experiments:
[1] = target: MazF3 toxin, (His)6MazF(FLAG)3 (Mycobacterium tuberculosis) (UniProt P9WIH8); test: MST
[2] = target: MazF9 toxin, (His)6MazF(FLAG)3 (Mycobacterium tuberculosis) (UniProt P71650); test: MST
[3] = target: MazE3 antitoxin, full length, (His)6MazE(FLAG)3 (Mycobacterium tuberculosis) (UniProt O53451); test: SEC-MALS
[4] = target: MazE9 antitoxin, full length, (His)6MazE(FLAG)3 (Mycobacterium tuberculosis) (UniProt P0CL61); test: SEC-MALS
[5] = target: MazF6 toxin WT, purified (Mycobacterium tuberculosis) (UniProt P9WII2); test: SEC-MALS
[6] = target: MazF9 toxin, (His)6MazF(FLAG)3 (Mycobacterium tuberculosis) (UniProt P71650); test: SEC-MALS
MazE3 library = test: flow cytometry on cells
SEC-MALS = target: the molecule itself; test: SEC-MALS

MazF9 toxin, (His)6MazF(FLAG)3 (Mycobacterium tuberculosis), sequence (P71650 whole entry): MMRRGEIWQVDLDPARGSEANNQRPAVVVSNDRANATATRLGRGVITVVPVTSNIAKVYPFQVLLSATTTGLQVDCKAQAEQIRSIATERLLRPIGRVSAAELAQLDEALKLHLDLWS

## C-terminal MazE3 peptide (residues 72-106) (from UniProt O53451 72-106)
[1]
  Kd: 299 nM
[2]
  Kd: 200 nM

## C-terminal MazE9 peptide (residues 43-76) (from UniProt P0CL61 43-76)
[2]
  Kd: 5.7 nM

## MazE3 antitoxin, full length, (His)6MazE(FLAG)3 (from UniProt O53451 1-106) (natural protein)
[3]
  stoichiometry N: 2

## MazE9 antitoxin, full length, (His)6MazE(FLAG)3 (from UniProt P0CL61 1-76) (natural protein)
[4]
  stoichiometry N: 2
[2]
  Kd: 8.9 nM

## MazF6 toxin WT, purified (from UniProt P9WII2 1-114) (natural protein)
[5]
  stoichiometry N: 2

## MazF9 toxin, (His)6MazF(FLAG)3 (from UniProt P71650 1-118) (natural protein)
[6]
  stoichiometry N: 2

B1: MazF3 toxin, (His)6MazF(FLAG)3 (natural protein)
chain: MRPIHIAQLDKARPVLILTREVVRPHLTNVTVAPITTTVRGLATEVPVDAVNGLNQPSVVSCDNTQTIPVCDLGRQIGYLLASQEPALAEAIGNAFDLDWVVA
MazE3 library
  Kd: 1.7 nM
SEC-MALS
  stoichiometry N: 2
